Paper PMC9482650, “Quantitative fragmentomics allow affinity mapping of interactomes” (Nature Communications, 2022)

Experiments:
Experiment in all cases: holdup assay
Set-up in all cases: key: below the threshold = too weak to quantify, mostly under pKd 3.1 to 4
APBA1_1, Q02410 = target: T1, APBA1_1, Q02410
T1 sequence (Q02410 651-752, limits assumed, looked up): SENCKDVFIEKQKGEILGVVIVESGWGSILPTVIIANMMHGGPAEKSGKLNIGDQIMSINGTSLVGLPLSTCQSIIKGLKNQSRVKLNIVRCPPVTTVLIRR

APBA3_1, O96018 = target: T2, APBA3_1, O96018
T2 sequence (O96018 389-490, limits assumed, looked up): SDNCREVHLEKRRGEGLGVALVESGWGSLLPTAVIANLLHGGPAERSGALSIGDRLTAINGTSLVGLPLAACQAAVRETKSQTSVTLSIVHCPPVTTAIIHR

CASK, O14936 = target: CASK, O14936
DFNB31_3, Q9P202 = target: T3, DFNB31_3, Q9P202
T3 sequence (Q9P202 811-907, limits assumed, looked up): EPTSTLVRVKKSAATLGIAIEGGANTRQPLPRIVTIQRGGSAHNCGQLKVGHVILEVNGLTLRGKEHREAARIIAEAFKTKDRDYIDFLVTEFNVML

DLG1_3, Q12959 = target: DLG1_3, Q12959
DLG4_2, P78352 = target: DLG4_2, P78352
FRMPD4, Q14CM0 = target: FRMPD4, Q14CM0
GOPC, Q9HD26 = target: GOPC, Q9HD26
GRIP1_4, Q9Y3R0 = target: T4, GRIP1_4, Q9Y3R0
T4 sequence (Q9Y3R0 467-571, limits assumed, looked up): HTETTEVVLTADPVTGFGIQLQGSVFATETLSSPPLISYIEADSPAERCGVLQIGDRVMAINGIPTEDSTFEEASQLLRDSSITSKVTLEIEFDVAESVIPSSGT

GRIP2_6, Q9C0E4 = target: GRIP2_6, Q9C0E4
HTRA2, O43464 = target: HTRA2, O43464
IL16_4, Q14005 = target: IL16_4, Q14005
Inadl_1, Q8NI35 = target: Inadl_1, Q8NI35
Inadl_6, Q8NI35 = target: Inadl_6, Q8NI35
LIN7B, Q9HAP6 = target: T5, LIN7B, Q9HAP6
T5 sequence (Q9HAP6 88-185, limits assumed, looked up): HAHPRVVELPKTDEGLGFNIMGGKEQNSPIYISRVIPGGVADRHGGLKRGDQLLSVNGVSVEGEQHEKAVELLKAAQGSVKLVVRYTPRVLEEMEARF

LRRC7, Q96NW7 = target: T6, LRRC7, Q96NW7
T6 sequence (Q96NW7 1440-1537, limits assumed, looked up): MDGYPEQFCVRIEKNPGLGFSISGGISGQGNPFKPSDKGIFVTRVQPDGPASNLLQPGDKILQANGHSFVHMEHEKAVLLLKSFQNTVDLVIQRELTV

MAST2, Q6P0Q8 = target: MAST2, Q6P0Q8
MPDZ_10, O75970 = target: T7, MPDZ_10, O75970
T7 sequence (O75970 1624-1722, limits assumed, looked up): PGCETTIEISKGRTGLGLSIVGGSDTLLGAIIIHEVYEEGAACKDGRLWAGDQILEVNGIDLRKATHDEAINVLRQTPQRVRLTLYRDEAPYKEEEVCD

NHERF3_3, Q5T2W1 = target: T8, NHERF3_3, Q5T2W1
T8 sequence (Q5T2W1 238-333, limits assumed, looked up): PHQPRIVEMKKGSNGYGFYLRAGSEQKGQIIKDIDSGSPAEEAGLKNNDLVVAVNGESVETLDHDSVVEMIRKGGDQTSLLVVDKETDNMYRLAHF

NHERF4_4, Q86UT5 = target: NHERF4_4, Q86UT5
PDLIM1, O00151 = target: PDLIM1, O00151
PDZD2_2, O15018 = target: T9, PDZD2_2, O15018
T9 sequence (O15018 329-429, limits assumed, looked up): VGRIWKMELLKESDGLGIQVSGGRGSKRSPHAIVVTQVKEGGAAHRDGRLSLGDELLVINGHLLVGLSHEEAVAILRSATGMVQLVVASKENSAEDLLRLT

PDZRN4_1, Q6ZMN7 = target: PDZRN4_1, Q6ZMN7
SIPA1L2, Q9P2F8 = target: T10, SIPA1L2, Q9P2F8
T10 sequence (Q9P2F8 945-1036, limits assumed, looked up): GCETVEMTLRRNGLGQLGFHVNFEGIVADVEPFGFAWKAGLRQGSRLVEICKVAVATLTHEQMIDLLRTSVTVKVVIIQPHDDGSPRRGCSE

TIAM2, Q8IVF5 = target: T11, TIAM2, Q8IVF5
T11 sequence (Q8IVF5 885-986, limits assumed, looked up): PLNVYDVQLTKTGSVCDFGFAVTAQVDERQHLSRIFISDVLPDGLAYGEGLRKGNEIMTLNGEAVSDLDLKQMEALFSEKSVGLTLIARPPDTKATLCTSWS

TJP1_3, Q07157 = target: TJP1_3, Q07157
[1] = plain residues with an end cap or a label only (N-terminal biotin on a linker: ahx)
[2] = plain residues with an end cap or a label only (N-terminal biotin on a linker: ado-ado)
[3] = plain residues with an end cap or a label only (N-terminal biotin on a linker: ttds)

Chain of CASK, O14936 (O14936 487-570): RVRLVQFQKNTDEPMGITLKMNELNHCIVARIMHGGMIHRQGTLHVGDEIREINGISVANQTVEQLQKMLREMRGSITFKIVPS
Chain of NHERF4_4, Q86UT5 (Q86UT5 464-550): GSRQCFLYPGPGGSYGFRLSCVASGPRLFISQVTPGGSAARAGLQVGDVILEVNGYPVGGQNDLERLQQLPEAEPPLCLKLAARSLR
Chain of TJP1_3, Q07157 (Q07157 416-512): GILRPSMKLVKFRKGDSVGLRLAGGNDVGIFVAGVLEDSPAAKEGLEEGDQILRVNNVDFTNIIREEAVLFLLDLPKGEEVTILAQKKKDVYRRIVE
Chain of MAST2, Q6P0Q8 (Q6P0Q8 1099-1202): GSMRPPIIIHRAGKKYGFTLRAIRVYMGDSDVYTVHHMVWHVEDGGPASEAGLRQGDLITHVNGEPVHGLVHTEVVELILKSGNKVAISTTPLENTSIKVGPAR
Chain of HTRA2, O43464 (O43464 355-458): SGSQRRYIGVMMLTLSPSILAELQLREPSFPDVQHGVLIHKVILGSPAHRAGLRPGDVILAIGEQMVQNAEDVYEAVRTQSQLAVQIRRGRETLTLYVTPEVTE
Chain of PDLIM1, O00151 (O00151 1-87): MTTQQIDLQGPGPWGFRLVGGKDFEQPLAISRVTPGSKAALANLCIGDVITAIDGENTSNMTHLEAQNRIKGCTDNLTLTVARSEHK
Chain of DLG4_2, P78352 (P78352 155-259): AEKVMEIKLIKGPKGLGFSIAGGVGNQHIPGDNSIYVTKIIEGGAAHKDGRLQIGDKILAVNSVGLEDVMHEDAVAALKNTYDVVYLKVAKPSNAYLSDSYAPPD
Chain of GRIP2_6, Q9C0E4 (Q9C0E4 648-740): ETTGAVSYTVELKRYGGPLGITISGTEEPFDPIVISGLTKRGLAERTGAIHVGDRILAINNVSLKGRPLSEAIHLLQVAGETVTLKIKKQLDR
Chain of Inadl_6, Q8NI35 (Q8NI35 1058-1167): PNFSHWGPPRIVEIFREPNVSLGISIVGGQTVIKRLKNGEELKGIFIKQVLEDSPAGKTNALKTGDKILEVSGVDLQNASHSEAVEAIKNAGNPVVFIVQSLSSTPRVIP
Chain of Inadl_1, Q8NI35 (Q8NI35 113-229): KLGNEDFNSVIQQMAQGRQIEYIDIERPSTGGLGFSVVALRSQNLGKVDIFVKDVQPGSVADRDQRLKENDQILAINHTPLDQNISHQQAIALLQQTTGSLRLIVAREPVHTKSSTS
Chain of DLG1_3, Q12959 (Q12959 457-571): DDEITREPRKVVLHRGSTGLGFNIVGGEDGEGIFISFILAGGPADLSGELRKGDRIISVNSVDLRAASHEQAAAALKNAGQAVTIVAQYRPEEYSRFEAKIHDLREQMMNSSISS
Chain of FRMPD4, Q14CM0 (Q14CM0 67-160): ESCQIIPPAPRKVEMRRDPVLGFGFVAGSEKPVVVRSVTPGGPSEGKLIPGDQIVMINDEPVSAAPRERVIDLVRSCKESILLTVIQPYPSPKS
Chain of IL16_4, Q14005 (Q14005 1229-1329): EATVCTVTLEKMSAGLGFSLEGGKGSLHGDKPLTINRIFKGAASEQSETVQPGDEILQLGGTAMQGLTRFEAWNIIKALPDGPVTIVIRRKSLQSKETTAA
Chain of PDZRN4_1, Q6ZMN7 (Q6ZMN7 213-318): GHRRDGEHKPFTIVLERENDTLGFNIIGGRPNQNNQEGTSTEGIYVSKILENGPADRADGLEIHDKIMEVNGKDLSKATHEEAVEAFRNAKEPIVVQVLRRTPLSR

KEYDDELTFF [USH1C, Q9Y6N9]
pKd (APBA1_1, Q02410; [1]): below the threshold | pKd (APBA3_1, O96018; [1]): below the threshold | pKd (CASK, O14936; [1]): below the threshold | pKd (DFNB31_3, Q9P202; [1]): 3.88 | pKd (DLG1_3, Q12959; [1]): below the threshold | pKd (DLG4_2, P78352; [1]): below the threshold | pKd (FRMPD4, Q14CM0; [1]): 4.42 | pKd (GOPC, Q9HD26; [1]): below the threshold | pKd (GRIP1_4, Q9Y3R0; [1]): below the threshold | pKd (GRIP2_6, Q9C0E4; [1]): below the threshold | pKd (HTRA2, O43464; [1]): below the threshold | pKd (IL16_4, Q14005; [1]): below the threshold | pKd (Inadl_1, Q8NI35; [1]): below the threshold | pKd (Inadl_6, Q8NI35; [1]): 3.71 | pKd (LIN7B, Q9HAP6; [1]): below the threshold | pKd (LRRC7, Q96NW7; [1]): below the threshold | pKd (MAST2, Q6P0Q8; [1]): 5.3 | pKd (MPDZ_10, O75970; [1]): below the threshold | pKd (NHERF3_3, Q5T2W1; [1]): below the threshold | pKd (NHERF4_4, Q86UT5; [1]): below the threshold | pKd (PDLIM1, O00151; [1]): below the threshold | pKd (PDZD2_2, O15018; [1]): 3.75 | pKd (PDZRN4_1, Q6ZMN7; [1]): below the threshold | pKd (SIPA1L2, Q9P2F8; [1]): below the threshold | pKd (TIAM2, Q8IVF5; [1]): below the threshold | pKd (TJP1_3, Q07157; [1]): below the threshold

DAAHHDESNC [FMNL3, Q8IVF7]
pKd (APBA1_1, Q02410; [2]): below the threshold | pKd (APBA3_1, O96018; [2]): below the threshold | pKd (CASK, O14936; [2]): below the threshold | pKd (DFNB31_3, Q9P202; [2]): 3.99 | pKd (DLG1_3, Q12959; [2]): below the threshold | pKd (DLG4_2, P78352; [2]): below the threshold | pKd (FRMPD4, Q14CM0; [2]): below the threshold | pKd (GOPC, Q9HD26; [2]): below the threshold | pKd (GRIP1_4, Q9Y3R0; [2]): below the threshold | pKd (GRIP2_6, Q9C0E4; [2]): below the threshold | pKd (HTRA2, O43464; [2]): below the threshold | pKd (IL16_4, Q14005; [2]): below the threshold | pKd (Inadl_1, Q8NI35; [2]): below the threshold | pKd (Inadl_6, Q8NI35; [2]): below the threshold | pKd (LIN7B, Q9HAP6; [2]): below the threshold | pKd (LRRC7, Q96NW7; [2]): below the threshold | pKd (MAST2, Q6P0Q8; [2]): 3.81 | pKd (MPDZ_10, O75970; [2]): below the threshold | pKd (NHERF3_3, Q5T2W1; [2]): below the threshold | pKd (NHERF4_4, Q86UT5; [2]): below the threshold | pKd (PDLIM1, O00151; [2]): below the threshold | pKd (PDZD2_2, O15018; [2]): 4.13 | pKd (PDZRN4_1, Q6ZMN7; [2]): below the threshold | pKd (SIPA1L2, Q9P2F8; [2]): below the threshold | pKd (TIAM2, Q8IVF5; [2]): 3.8 | pKd (TJP1_3, Q07157; [2]): below the threshold

EKPIDSETKM [SLC1A3, P43003]
pKd (APBA1_1, Q02410; [2]): below the threshold | pKd (APBA3_1, O96018; [2]): below the threshold | pKd (CASK, O14936; [2]): below the threshold | pKd (DFNB31_3, Q9P202; [2]): below the threshold | pKd (DLG1_3, Q12959; [2]): below the threshold | pKd (DLG4_2, P78352; [2]): below the threshold | pKd (FRMPD4, Q14CM0; [2]): below the threshold | pKd (GOPC, Q9HD26; [2]): below the threshold | pKd (GRIP1_4, Q9Y3R0; [2]): below the threshold | pKd (GRIP2_6, Q9C0E4; [2]): below the threshold | pKd (HTRA2, O43464; [2]): below the threshold | pKd (IL16_4, Q14005; [2]): below the threshold | pKd (Inadl_1, Q8NI35; [2]): below the threshold | pKd (Inadl_6, Q8NI35; [2]): below the threshold | pKd (LIN7B, Q9HAP6; [2]): below the threshold | pKd (LRRC7, Q96NW7; [2]): below the threshold | pKd (MAST2, Q6P0Q8; [2]): 5.51 | pKd (MPDZ_10, O75970; [2]): below the threshold | pKd (NHERF3_3, Q5T2W1; [2]): 3.61 | pKd (NHERF4_4, Q86UT5; [2]): below the threshold | pKd (PDLIM1, O00151; [2]): below the threshold | pKd (PDZD2_2, O15018; [2]): below the threshold | pKd (PDZRN4_1, Q6ZMN7; [2]): below the threshold | pKd (SIPA1L2, Q9P2F8; [2]): below the threshold | pKd (TIAM2, Q8IVF5; [2]): below the threshold | pKd (TJP1_3, Q07157; [2]): below the threshold

VNENQKEYFF [CNTNAP4, Q9C0A0]
pKd (APBA1_1, Q02410; [1]): below the threshold | pKd (APBA3_1, O96018; [1]): below the threshold | pKd (CASK, O14936; [1]): 3.79 | pKd (DFNB31_3, Q9P202; [1]): below the threshold | pKd (DLG1_3, Q12959; [1]): below the threshold | pKd (DLG4_2, P78352; [1]): below the threshold | pKd (FRMPD4, Q14CM0; [1]): 4.65 | pKd (GOPC, Q9HD26; [1]): below the threshold | pKd (GRIP1_4, Q9Y3R0; [1]): below the threshold | pKd (GRIP2_6, Q9C0E4; [1]): 5.04 | pKd (HTRA2, O43464; [1]): below the threshold | pKd (IL16_4, Q14005; [1]): below the threshold | pKd (Inadl_1, Q8NI35; [1]): 3.72 | pKd (Inadl_6, Q8NI35; [1]): 3.86 | pKd (LIN7B, Q9HAP6; [1]): below the threshold | pKd (LRRC7, Q96NW7; [1]): below the threshold | pKd (MAST2, Q6P0Q8; [1]): 5.08 | pKd (MPDZ_10, O75970; [1]): below the threshold | pKd (NHERF3_3, Q5T2W1; [1]): below the threshold | pKd (NHERF4_4, Q86UT5; [1]): 4.1 | pKd (PDLIM1, O00151; [1]): below the threshold | pKd (PDZD2_2, O15018; [1]): below the threshold | pKd (PDZRN4_1, Q6ZMN7; [1]): below the threshold | pKd (SIPA1L2, Q9P2F8; [1]): below the threshold | pKd (TIAM2, Q8IVF5; [1]): 4.62 | pKd (TJP1_3, Q07157; [1]): below the threshold

PSRDRKETSI [RALBP1, Q15311]
pKd (APBA1_1, Q02410; [3]): below the threshold | pKd (APBA3_1, O96018; [3]): below the threshold | pKd (CASK, O14936; [3]): below the threshold | pKd (DFNB31_3, Q9P202; [3]): below the threshold | pKd (DLG1_3, Q12959; [3]): 4.28 | pKd (DLG4_2, P78352; [3]): 4.58 | pKd (FRMPD4, Q14CM0; [3]): below the threshold | pKd (GOPC, Q9HD26; [3]): 3.6 | pKd (GRIP1_4, Q9Y3R0; [3]): below the threshold | pKd (GRIP2_6, Q9C0E4; [3]): 3.36 | pKd (HTRA2, O43464; [3]): below the threshold | pKd (IL16_4, Q14005; [3]): below the threshold | pKd (Inadl_1, Q8NI35; [3]): below the threshold | pKd (Inadl_6, Q8NI35; [3]): below the threshold | pKd (LIN7B, Q9HAP6; [3]): 3.49 | pKd (LRRC7, Q96NW7; [3]): below the threshold | pKd (MAST2, Q6P0Q8; [3]): 4.88 | pKd (MPDZ_10, O75970; [3]): below the threshold | pKd (NHERF3_3, Q5T2W1; [3]): below the threshold | pKd (NHERF4_4, Q86UT5; [3]): below the threshold | pKd (PDLIM1, O00151; [3]): below the threshold | pKd (PDZD2_2, O15018; [3]): 3.75 | pKd (PDZRN4_1, Q6ZMN7; [3]): 4.57 | pKd (SIPA1L2, Q9P2F8; [3]): below the threshold | pKd (TIAM2, Q8IVF5; [3]): below the threshold | pKd (TJP1_3, Q07157; [3]): below the threshold
